Target: Protein A (Staphylococcus aureus) (UniProt P38507)
Test: ITC

Substance	KA, first binding site [M⁻¹]	N, first binding site	dH, first binding site [kcal/mol]	dH [kcal/mol]	stoichiometry N
Nanoparticle-conjugated trastuzumab (CS-DOX-mAb) (antibody)	3.48e+06	1.65	-93.9	–	–
Trastuzumab (Herceptin), free monoclonal antibody	–	–	–	-105	2.78

From publication PMC3181058
